The source of these data is the RNAGym collection of RNA variant scans (doi:10.1093/molbev/msab373).

B1: Azoarcus group I ribozyme (parent)
chain: GUGCCUUGCGCCGGGAAACCACGCAAGGGAUGGUGUCAAAUUCGGCGAAACCUAAGCGCCCGCCCGGGCGUAUGGCAACGCCGAGCCAAGCUUCGGCGCCUGCGCCGAUGAAGGUGUAGAGACUAGACGGCACCCACCUAAGGCAAACGCUAUGGUGAAGGCAUAGUCCAGGGAGUGGCGAAAGUCACACAAACCGG

The variants in the series derive from B1. Nature of the series: reverse-splicing fitness (ratio to wild type); higher = more active; in vitro selection; Mg2+ level not given. The essentials:
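An in vitro group I ribozyme library with randomized positions was T7-transcribed and gel-purified. In triplicate, 10 pmol RNA in EPPS pH 7.5 was reacted with 50 pmoles of a 30-nt RNA substrate for 1 h at 37 °C across several added MgCl2 levels (1–48 mM), then stopped with EDTA. Products were reverse transcribed from a substrate-complementary primer, PCR-amplified and sequenced (HiSeq 4000). Fitness is a variant's read proportion after selection over that before, normalised to wild type.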
As to A111C A120C A145C C150A C169G U176G, the reverse-splicing fitness was 0.007.
A111C A120C A145C C150A C169G U176C: the reverse-splicing fitness turned out to be 0.0146.
With A111C A120C A145C C150A C169G U176A the figure was 0.0246.
With C82U A145G C150U C169A U176A the figure was 0.0158; with C82U A145G C150U C169A U176C, 0.0136; with C82U A145G C150U C169A U176G, 0.00522.
With A111C A120C A145C C150U C169G U176A the figure was 0.0202; with A111C A120C A145C C150U C169G U176G, 0.00592.
A111C A120C A145C C150U C169G U176C: the reverse-splicing fitness turned out to be 0.0118.
With C82U C150U C169G U176C the figure was 0.015; with C82U C150U C169G U176G, 0.0052.
With C82U C150U C169G U176A the figure was 0.0135; with C82U C150A C169A, 0.0107.
With C82U C150A C169G the figure was 0.00731; with C82U C150A C169U, 0.0105.
With C82U A145U C150U C169U U176C, the reverse-splicing fitness came to 0.0115.
With C82U A145U C150U C169U U176A the figure was 0.0133; with C82U A145U C150U C169U U176G, 0.00433; with A111C A120C A145G U176G, 0.0393.
With A111C A120C A145G U176C the figure was 0.203; with A111C A120C A145G U176A, 0.19.
C82U C150U C169A U176A: the reverse-splicing fitness was found to be 0.0154.
With C82U C150U C169A U176G the figure was 0.00561; with C82U C150U C169A U176C, 0.0123; with C82U A145U C150A C169A, 0.00771.
With C82U A145U C150A C169U the figure was 0.00825; with C82U A145U C150A C169G, 0.00614.
With C82U A145G C150A C169G the figure was 0.00784; with C82U A145G C150A C169U, 0.0093.
Turning to C82U A145G C169G U176A, the reverse-splicing fitness came out at 0.0184.
With C82U A145G C169G U176C the figure was 0.0258; with C82U A145G C169G U176G, 0.00452; with C82U C150G C169G U176A, 0.00631.
With C82U C150G C169G U176C the figure was 0.0054; with C82U C150G C169G U176G, 0.00464.
With A111C A120C A145G C150U C169G the figure was 0.00981.
For the variant A111C A120C A145G C150U C169A, the reverse-splicing fitness was 0.0131.
For the variant A111C A120C A145G C150U C169U, the reverse-splicing fitness stood at 0.147.
With C82U C150U C169U U176G the figure was 0.00558.
In the case of C82U C150U C169U U176C, the reverse-splicing fitness was determined as 0.0135.
With C82U C150U C169U U176A the figure was 0.0128; with A111C A120C A145U C150A U176C, 0.0526; with A111C A120C A145U C150A U176A, 0.0359.
With A111C A120C A145G C150G U176G the figure was 0.0072; with A111C A120C A145G C150G U176A, 0.0158; with A111C A120C A145G C150G U176C, 0.0368.
With C82U A145U C150U C169G U176A the figure was 0.00933; with C82U A145U C150U C169G U176C, 0.0107.
For C82U A145U C150U C169G U176G, the reverse-splicing fitness turned out to be 0.00498.
With C82U A145U U176A the figure was 0.412; with C82U A145U U176C, 0.477.
Consider C82U A145U U176G, for which the reverse-splicing fitness is 0.153.
With A111C A120C A145C C150G C169U U176C, the reverse-splicing fitness was 0.0163.
With A111C A120C A145C C150G C169U U176G the figure was 0.0054.
Turning to A111C A120C A145C C150G C169U U176A, the reverse-splicing fitness was determined as 0.00995.
Take A111C A120C A145G C150G C169U U176C: the reverse-splicing fitness was 0.0128.
With A111C A120C A145G C150G C169U U176A the figure was 0.0114.
With A111C A120C A145G C150G C169U U176G the figure was 0.0071; with C82U U176C, 0.476; with C82U U176G, 0.126.
With C82U U176A the figure was 0.386; with A111C A120C A145G C169G U176C, 0.0244; with A111C A120C A145G C169G U176A, 0.0201.
With A111C A120C A145G C169G U176G, the reverse-splicing fitness amounted to 0.00588.
With C82U A145G C150U C169U U176G the figure was 0.00493.
With C82U A145G C150U C169U U176C the figure was 0.0134.
With C82U A145G C150U C169U U176A the figure was 0.0142; with A111C A120C A145G C169U U176G, 0.00591.
Consider A111C A120C A145G C169U U176C, for which the reverse-splicing fitness turned out to be 0.0425.
With A111C A120C A145G C169U U176A the figure was 0.033.
With C82U A145U C150U U176G the figure was 0.0898; with C82U A145U C150U U176A, 0.274; with C82U A145U C150U U176C, 0.346.
With C82U C169A U176G the figure was 0.00439; with C82U C169A U176A, 0.0127; with C82U C169A U176C, 0.0154.
On to A111C A120C A145C C169G U176G, for which the reverse-splicing fitness worked out at 0.00634.
With A111C A120C A145C C169G U176C the figure was 0.0167; with A111C A120C A145C C169G U176A, 0.0217; with A111C A120C A145C C150U U176G, 0.0168.
With A111C A120C A145C C150U U176A the figure was 0.069; with A111C A120C A145C C150U U176C, 0.0914; with C82U C150G C169U U176C, 0.01.
